Assays:
[1] = test system: carbapenem-resistant clinical strain, WC-452; assay: Checkerboard assay to examine synergy with antibiotics in CAA/HuS; format: cell-based, P. aeruginosa
[2] = test system: carbapenem-resistant P. aeruginosa strains; assay: Resensitization of carbapenem-resistant clinical strains using carbapenems in combination with lysins; format: cell-based
Method: The checkerboard assays is based on a modification of the CLSI method for MIC determination by broth microdilution (26, 29). Checkerboards were constructed by first preparing columns of a 96-well polypropylene microtiter plate, in which each well had the same amount of antibiotic diluted 2-fold along the horizontal axis. […] Summation fractional inhibitory concentrations (ΣFICs) were calculated for each drug and the minimum ΣFIC value (ΣFICmin) was used to determine synergy. ΣFICs were calculated as follows: ΣFIC=FIC A+FIC B, where FIC A is the MIC of each antibiotic in the combination/MIC of each antibiotic alone, and FIC B is the MIC of each GN lysin in the combination/MIC of each GN lysin alone. The combination is considered synergistic when the ΣFIC is ≤0.5, strongly additive when the ΣFIC is >0.5 to <1, additive with the ΣFIC is 1−<2, and antagonistic when the ΣFIC is ≥2.
Up to seven carbapenem-resistant isolates were assessed. […] See Clinical and Laboratory Standards Institute (CLSI), CLSI. […] M100 Performance Standards for Antimicrobial Susceptibility Testing; 29th Edition. Clinical and Laboratory Standards Institute, Wayne, Pa.

[3] = test system: human erythrocytes; format: cell-based
Method: The hemolytic activity of the GN lysins was measured as the amount of hemoglobin released by the lysis of human erythrocytes (30). Briefly, 3 ml of fresh human blood cells (hRBCs) obtained from pooled healthy donors (BioreclamationIVT) in a polycarbonate tube containing heparin was centrifuged at 1,000×g for 5 min at 4° C. The erythrocytes obtained were washed three times with phosphate-buffered saline (PBS) solution (pH 7.2) and resuspended in […]. […] Intact erythrocytes were pelleted by centrifugation at 1,000×g for 5 min at 4° C., and the supernatant was transferred to a new 96-well plate. The release of hemoglobin was monitored by measuring the absorbance at 570 nm.

[4] = test system: P. aeruginosa; assay: Time-kill assay of GN lysin activity; format: cell-based, Pseudomonas aeruginosa; conditions: for Log10 CFU/mL T = 3 hr / Log10 CFU/mL T = l hr: lysin 10 μg/mL, T = 0 7.8; for Log10 CFU/mL T = 3 hr: buffer control 7.2, limit of detection 3.7; for Log10 CFU/mL T = l hr: buffer control 7.7
Method: All treatments were incubated at 37° C. with aeration.

[5] = test system: P. aeruginosa; assay: Minimal inhibitory concentration (MIC), modified CLSI broth microdilution in CAA or CAA/HuS; format: cell-based, Pseudomonas aeruginosa
[6] = test system: P. aeruginosa strain ATCC 17647; assay: Minimal Biofilm Eradicating Concentration (MBEC), Calgary Biofilm Device; format: cell-based, Pseudomonas aeruginosa; conditions: 24 h biofilm, 24 h treatment; minimum concentration removing >95% of biofilm biomass (crystal violet)
Description: All samples were examined in triplicate.

[7] = HEPES buffer, ‡ indicates bactericidal activity

B1: GN123: Native lysin, GenBank YP_009217242.1, SEQ ID NO: 27 (protein)
chain: MTLLKKGDKGDAVKQLQQKLKDLGYTLGVDGNFGNGTDTVVRSFQTKMKLSVDGVVGNGTMSTIDSTLAGIKAWKTSVPFPATNKSRAMAMPTLTEIGRLTNVDPKLLATFCSIESAFDYTAKPYKPDGTVYSSAEGWFQFLDATWDDEVRKHGKQYSFPVDPGRSLRKDPRANGLMGAEFLKGNAAILRPVLGHEPSDTDLYLAHFMGAGGAKQFLMADQNKLAAELFPGPAKANPNIFYKSGNIARTLAEVYAVLDAKVAKHRA
modifications: Pseudomonas phage PhiPA3
For B1, the “FICI, Fosfomycin” value ([1]; lysin + fosfomycin) was 0.250, the “FICI, Gentamicin” value ([1]; lysin + gentamicin) was 0.375 and the “FICI, Imipenem” value ([1]; lysin + imipenem) was 0.188. The “FICI, Meropenem” value ([1]; lysin + meropenem) was 0.125, the “FICI, Piperacillin” value ([1]; lysin + piperacillin) was 0.500 and the “GN123 Alone” value ([2]; isolate PA19, MIC of GN123 alone (imipenem checkerboard)) was 8 µg/mL. The “GN123 Alone” value ([2]; isolate PA19, MIC of GN123 alone (meropenem checkerboard)) was 8 µg/mL, the “GN123 Combination” value ([2]; isolate PA19, MIC of GN123 in combination with imipenem) was 0.125 µg/mL and the “GN123 Combination” value ([2]; isolate PA19, MIC of GN123 in combination with meropenem) was 0.25 µg/mL. The FICI ([2]; isolate PA19, imipenem + GN123) was 0.03, the FICI ([2]; isolate PA19, meropenem + GN123) was 0.046 and the “GN123 Alone” value ([2]; isolate PA20, MIC of GN123 alone (imipenem checkerboard)) was 16 µg/mL. The “GN123 Alone” value ([2]; isolate PA20, MIC of GN123 alone (meropenem checkerboard)) was 16 µg/mL, the “GN123 Combination” value ([2]; isolate PA20, MIC of GN123 in combination with imipenem) was 2 µg/mL and the “GN123 Combination” value ([2]; isolate PA20, MIC of GN123 in combination with meropenem) was 1 µg/mL. For the same molecule, the FICI ([2]; isolate PA20, imipenem + GN123) was 0.188, the FICI ([2]; isolate PA20, meropenem + GN123) was 0.094 and the “GN123 Alone” value ([2]; isolate PA21, MIC of GN123 alone (imipenem checkerboard)) was 8 µg/mL. For the same molecule, the “GN123 Alone” value ([2]; isolate PA21, MIC of GN123 alone (meropenem checkerboard)) was 8 µg/mL, the “GN123 Combination” value ([2]; isolate PA21, MIC of GN123 in combination with imipenem) was 1 µg/mL and the “GN123 Combination” value ([2]; isolate PA21, MIC of GN123 in combination with meropenem) was 1 µg/mL. For the same molecule, the FICI ([2]; isolate PA21, imipenem + GN123) was 0.141, the FICI ([2]; isolate PA21, meropenem + GN123) was 0.156 and the “GN123 Alone” value ([2]; isolate PA22, MIC of GN123 alone (imipenem checkerboard)) was 16 µg/mL. The “GN123 Alone” value ([2]; isolate PA22, MIC of GN123 alone (meropenem checkerboard)) was 16 µg/mL, the “GN123 Combination” value ([2]; isolate PA22, MIC of GN123 in combination with imipenem) was 1 µg/mL and the “GN123 Combination” value ([2]; isolate PA22, MIC of GN123 in combination with meropenem) was 1 µg/mL. For the same molecule, the FICI ([2]; isolate PA22, imipenem + GN123) was 0.188, the FICI ([2]; isolate PA22, meropenem + GN123) was 0.125 and the “GN123 Alone” value ([2]; isolate PA23, MIC of GN123 alone (imipenem checkerboard)) was 8 µg/mL. For the same molecule, the “GN123 Alone” value ([2]; isolate PA23, MIC of GN123 alone (meropenem checkerboard)) was 8 µg/mL, the “GN123 Combination” value ([2]; isolate PA23, MIC of GN123 in combination with imipenem) was 2 µg/mL and the “GN123 Combination” value ([2]; isolate PA23, MIC of GN123 in combination with meropenem) was 1 µg/mL. For the same molecule, the FICI ([2]; isolate PA23, imipenem + GN123) was 0.281, the FICI ([2]; isolate PA23, meropenem + GN123) was 0.156 and the “GN123 Alone” value ([2]; isolate PA24, MIC of GN123 alone (imipenem checkerboard)) was 16 µg/mL. The “GN123 Alone” value ([2]; isolate PA24, MIC of GN123 alone (meropenem checkerboard)) was 16 µg/mL, the “GN123 Combination” value ([2]; isolate PA24, MIC of GN123 in combination with imipenem) was 2 µg/mL and the “GN123 Combination” value ([2]; isolate PA24, MIC of GN123 in combination with meropenem) was 0.5 µg/mL. For the same molecule, the FICI ([2]; isolate PA24, imipenem + GN123) was 0.188, the FICI ([2]; isolate PA24, meropenem + GN123) was 0.094 and the “GN123 Alone” value ([2]; isolate WC-452, MIC of GN123 alone (imipenem checkerboard)) was 16 µg/mL. For the same molecule, the “GN123 Alone” value ([2]; isolate WC-452, MIC of GN123 alone (meropenem checkerboard)) was 16 µg/mL, the “GN123 Combination” value ([2]; isolate WC-452, MIC of GN123 in combination with imipenem) was 2 µg/mL and the “GN123 Combination” value ([2]; isolate WC-452, MIC of GN123 in combination with meropenem) was 1 µg/mL. The FICI ([2]; isolate WC-452, imipenem + GN123) was 0.188, the FICI ([2]; isolate WC-452, meropenem + GN123) was 0.125 and the “resensitization of carbapenem-resistant isolates to IPM and MEM” value ([2]; synergistic combinations with imipenem or meropenem, breakpoints ≤2 sensitive, 4 intermediate, ≥8 resistant) was “reductions of IPM and MEM MICS to below breakpoint values”. For the same molecule, the hemolytic activity [3] was “no hemolytic activity whatsoever”, the “bactericidal activity in the time-kill assay format” value ([4]; 3-hour timepoint, 10 μg/mL, in either CAA/HuS or HEPES buffer) was “bactericidal activity” and the “Log10 CFU/mL T = 3 hr” value ([4]; CAA/HuS, ‡ indicates bactericidal activity) was <3.7‡ Log10 CFU/mL. For the same molecule, the “Log10 CFU/mL T = l hr” value ([4]; CAA/HuS) was 6.7 Log10 CFU/mL, the “Log10 CFU/mL T = 3 hr” value [4, 7] was <3.7‡ Log10 CFU/mL and the “Log10 CFU/mL T = l hr” value [4, 7] was 5.6 Log10 CFU/mL. For the same molecule, the “MIC (μg/mL) in CAA” value ([5]; CAA media) was 2 µg/mL, the “MIC (μg/mL in CAA/HuS)” value ([5]; CAA supplemented with 25% human serum) was 128 µg/mL and the “MBEC” value [6] was 4 µg/mL.

From patent US20220160843A1 (priority 2019, published 2022)
